From the supplement of paper PMC10065799, “High-throughput profiling of sequence recognition by tyrosine kinases and SH2 domains using bacterial peptide display” (eLife, 2023)

Tests used:
Hck = Hck (UniProt P08631); assay: phosphorylation enrichment, bacterial display (enrichment ratio); higher = better substrate or ligand; peptides without Tyr show the background
MERTK = MERTK (UniProt Q12866); assay: as above
FGFR3 = FGFR3 (UniProt P22607); assay: as above
Fes = Fes (UniProt P07332); assay: as above
Fer (mouse) = assay: as above
FGFR1 = FGFR1 (UniProt P11362); assay: as above
c-Abl (mouse) = assay: as above
AncSZ = assay: as above
c-Src = assay: as above
EPHB2 = EPHB2 (UniProt P29323); assay: as above
Jak2 = Jak2 (UniProt O60674); assay: as above
EPHB1 = EPHB1 (UniProt P54762); assay: as above
Fyn = Fyn (UniProt P06241); assay: as above
SHP2-C SH2 = assay: SH2 binding enrichment of the phosphorylated peptide, bacterial display (enrichment ratio); higher = better substrate or ligand; peptides without Tyr show the background
Grb2 SH2 = Grb2 SH2 (UniProt P62993); assay: as above
c-Src SH2 = assay: as above
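Throughout, for SH2 binding enrichment of the phosphorylated peptide, bacterial display: peptide library displayed on the E. coli surface as eCPX fusions, selected cells deep-sequenced, score is each peptide's frequency after selection divided by its frequency in the input.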
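Throughout, for phosphorylation enrichment, bacterial display: 11-residue human phosphosite peptides and single-mutation variants displayed on the E. coli surface, counted by deep sequencing, each peptide's frequency after selection divided by its frequency in the unselected input library; frequency after pTyr selection over input frequency; kinase dosed for 20-30% of maximal phosphorylation in three min.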

Sequence of Jak2 (O60674 whole entry, looked up): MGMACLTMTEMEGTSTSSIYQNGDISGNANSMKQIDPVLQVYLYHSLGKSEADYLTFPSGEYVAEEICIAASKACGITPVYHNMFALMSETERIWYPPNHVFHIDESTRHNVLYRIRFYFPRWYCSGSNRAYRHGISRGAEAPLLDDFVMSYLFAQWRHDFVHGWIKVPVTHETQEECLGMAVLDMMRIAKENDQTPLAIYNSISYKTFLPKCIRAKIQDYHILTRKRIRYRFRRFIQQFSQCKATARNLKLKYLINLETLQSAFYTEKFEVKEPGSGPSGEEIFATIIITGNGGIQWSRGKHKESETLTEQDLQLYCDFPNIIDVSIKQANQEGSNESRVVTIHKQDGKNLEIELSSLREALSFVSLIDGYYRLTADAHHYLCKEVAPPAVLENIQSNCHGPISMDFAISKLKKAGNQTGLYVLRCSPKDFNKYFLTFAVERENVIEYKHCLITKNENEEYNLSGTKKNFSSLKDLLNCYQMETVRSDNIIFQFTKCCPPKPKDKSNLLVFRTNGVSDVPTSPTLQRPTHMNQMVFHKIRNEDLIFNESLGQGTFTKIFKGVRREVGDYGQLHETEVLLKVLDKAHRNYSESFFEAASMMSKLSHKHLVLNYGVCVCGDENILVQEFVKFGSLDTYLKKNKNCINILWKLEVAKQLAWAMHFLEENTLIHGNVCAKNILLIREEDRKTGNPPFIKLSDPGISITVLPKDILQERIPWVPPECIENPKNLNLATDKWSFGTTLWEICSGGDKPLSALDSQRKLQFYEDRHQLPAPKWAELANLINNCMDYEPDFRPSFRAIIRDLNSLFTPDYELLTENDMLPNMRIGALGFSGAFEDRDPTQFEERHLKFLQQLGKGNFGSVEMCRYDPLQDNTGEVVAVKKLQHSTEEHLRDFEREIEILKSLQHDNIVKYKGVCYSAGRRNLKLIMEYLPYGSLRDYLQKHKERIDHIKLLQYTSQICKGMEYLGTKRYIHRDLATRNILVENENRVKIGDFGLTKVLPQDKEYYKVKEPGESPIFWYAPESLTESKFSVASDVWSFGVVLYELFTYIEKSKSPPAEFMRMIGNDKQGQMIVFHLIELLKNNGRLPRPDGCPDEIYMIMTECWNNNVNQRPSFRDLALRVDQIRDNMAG
Sequence of MERTK (Q12866 whole entry, looked up): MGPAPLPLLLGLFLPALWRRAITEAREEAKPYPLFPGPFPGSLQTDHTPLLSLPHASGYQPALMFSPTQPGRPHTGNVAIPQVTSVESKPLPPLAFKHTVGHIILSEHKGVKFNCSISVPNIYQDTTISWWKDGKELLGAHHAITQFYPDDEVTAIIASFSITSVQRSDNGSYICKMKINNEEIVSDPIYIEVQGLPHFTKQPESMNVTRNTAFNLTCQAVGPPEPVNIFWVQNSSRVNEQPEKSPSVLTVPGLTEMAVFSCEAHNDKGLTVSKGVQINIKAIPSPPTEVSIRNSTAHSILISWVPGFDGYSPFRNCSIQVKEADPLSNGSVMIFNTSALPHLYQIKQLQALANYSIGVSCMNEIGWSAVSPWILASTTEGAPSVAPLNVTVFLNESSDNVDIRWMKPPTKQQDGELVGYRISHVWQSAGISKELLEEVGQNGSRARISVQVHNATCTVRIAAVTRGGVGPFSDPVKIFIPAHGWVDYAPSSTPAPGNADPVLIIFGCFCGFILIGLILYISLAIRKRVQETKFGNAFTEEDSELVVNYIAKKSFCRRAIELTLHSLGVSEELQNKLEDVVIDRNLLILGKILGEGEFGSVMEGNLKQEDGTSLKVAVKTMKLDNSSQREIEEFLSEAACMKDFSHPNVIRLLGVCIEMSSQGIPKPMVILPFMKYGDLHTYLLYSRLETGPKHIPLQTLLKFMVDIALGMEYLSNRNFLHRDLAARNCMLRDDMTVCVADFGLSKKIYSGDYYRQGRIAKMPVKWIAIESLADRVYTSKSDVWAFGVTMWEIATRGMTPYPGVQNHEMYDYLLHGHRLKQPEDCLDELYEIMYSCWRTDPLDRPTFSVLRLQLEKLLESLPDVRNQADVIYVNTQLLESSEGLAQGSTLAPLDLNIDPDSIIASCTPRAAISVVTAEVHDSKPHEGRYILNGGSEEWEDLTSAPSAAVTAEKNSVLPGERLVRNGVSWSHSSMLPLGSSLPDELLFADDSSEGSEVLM
Sequence of EPHB1 (P54762 whole entry, looked up): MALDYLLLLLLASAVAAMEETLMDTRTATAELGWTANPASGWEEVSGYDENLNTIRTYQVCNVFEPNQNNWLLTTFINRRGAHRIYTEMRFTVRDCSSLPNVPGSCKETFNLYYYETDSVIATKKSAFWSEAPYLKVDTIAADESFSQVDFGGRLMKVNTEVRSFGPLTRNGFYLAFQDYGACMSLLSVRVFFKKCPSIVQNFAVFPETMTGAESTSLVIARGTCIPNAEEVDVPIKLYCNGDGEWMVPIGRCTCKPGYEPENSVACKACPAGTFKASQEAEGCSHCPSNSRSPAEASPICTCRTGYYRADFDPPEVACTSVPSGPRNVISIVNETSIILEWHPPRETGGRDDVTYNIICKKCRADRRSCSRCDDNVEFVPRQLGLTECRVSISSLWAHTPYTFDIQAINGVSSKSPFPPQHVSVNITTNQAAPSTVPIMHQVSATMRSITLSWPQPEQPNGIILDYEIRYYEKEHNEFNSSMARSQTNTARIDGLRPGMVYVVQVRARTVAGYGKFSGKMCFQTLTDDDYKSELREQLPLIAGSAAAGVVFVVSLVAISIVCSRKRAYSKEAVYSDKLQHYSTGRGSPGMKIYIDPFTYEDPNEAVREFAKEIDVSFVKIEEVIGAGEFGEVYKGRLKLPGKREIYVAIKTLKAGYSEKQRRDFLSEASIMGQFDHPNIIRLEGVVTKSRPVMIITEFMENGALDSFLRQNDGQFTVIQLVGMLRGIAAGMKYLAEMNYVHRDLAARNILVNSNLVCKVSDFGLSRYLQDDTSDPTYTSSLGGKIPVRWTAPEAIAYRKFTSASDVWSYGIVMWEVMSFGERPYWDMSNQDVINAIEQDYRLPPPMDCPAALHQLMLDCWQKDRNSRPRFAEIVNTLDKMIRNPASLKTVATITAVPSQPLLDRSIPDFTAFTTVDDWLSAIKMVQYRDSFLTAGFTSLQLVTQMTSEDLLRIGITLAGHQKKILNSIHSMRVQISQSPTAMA
Sequence of Hck (P08631 whole entry, looked up): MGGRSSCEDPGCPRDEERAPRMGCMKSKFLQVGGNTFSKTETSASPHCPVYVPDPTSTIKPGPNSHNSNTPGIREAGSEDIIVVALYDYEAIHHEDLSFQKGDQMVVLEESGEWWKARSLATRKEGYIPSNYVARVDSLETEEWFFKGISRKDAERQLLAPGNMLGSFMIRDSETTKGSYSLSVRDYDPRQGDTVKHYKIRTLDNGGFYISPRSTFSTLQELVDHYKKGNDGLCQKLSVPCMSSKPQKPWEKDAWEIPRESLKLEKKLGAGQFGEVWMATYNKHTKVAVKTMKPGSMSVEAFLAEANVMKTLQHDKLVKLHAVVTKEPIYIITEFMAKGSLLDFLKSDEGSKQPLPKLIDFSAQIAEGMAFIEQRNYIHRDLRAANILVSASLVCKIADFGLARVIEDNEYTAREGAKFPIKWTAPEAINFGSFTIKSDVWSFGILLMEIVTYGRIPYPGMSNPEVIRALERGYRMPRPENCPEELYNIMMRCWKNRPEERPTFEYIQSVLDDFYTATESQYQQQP
Sequence of FGFR1 (P11362 whole entry, looked up): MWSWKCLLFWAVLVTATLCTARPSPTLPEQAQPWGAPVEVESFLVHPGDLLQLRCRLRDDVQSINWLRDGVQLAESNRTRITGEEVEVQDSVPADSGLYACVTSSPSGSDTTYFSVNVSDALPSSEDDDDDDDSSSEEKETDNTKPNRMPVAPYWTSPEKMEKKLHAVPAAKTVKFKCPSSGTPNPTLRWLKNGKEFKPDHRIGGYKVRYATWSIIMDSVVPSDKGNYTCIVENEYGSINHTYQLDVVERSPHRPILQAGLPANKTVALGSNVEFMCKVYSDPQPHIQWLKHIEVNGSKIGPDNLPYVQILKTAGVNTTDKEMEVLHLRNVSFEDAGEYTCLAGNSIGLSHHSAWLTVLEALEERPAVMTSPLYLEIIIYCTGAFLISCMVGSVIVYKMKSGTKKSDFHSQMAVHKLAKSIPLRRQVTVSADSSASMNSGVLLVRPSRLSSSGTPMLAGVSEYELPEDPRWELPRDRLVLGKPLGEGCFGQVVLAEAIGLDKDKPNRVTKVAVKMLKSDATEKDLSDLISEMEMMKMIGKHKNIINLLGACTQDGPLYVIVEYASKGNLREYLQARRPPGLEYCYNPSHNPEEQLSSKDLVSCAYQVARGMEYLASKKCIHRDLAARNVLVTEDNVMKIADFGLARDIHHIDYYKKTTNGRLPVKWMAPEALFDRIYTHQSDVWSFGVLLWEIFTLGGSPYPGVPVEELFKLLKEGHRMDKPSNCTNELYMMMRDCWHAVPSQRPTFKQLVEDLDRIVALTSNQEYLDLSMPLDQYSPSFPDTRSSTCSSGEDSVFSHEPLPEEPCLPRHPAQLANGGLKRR
Sequence of Fyn (P06241 whole entry, looked up): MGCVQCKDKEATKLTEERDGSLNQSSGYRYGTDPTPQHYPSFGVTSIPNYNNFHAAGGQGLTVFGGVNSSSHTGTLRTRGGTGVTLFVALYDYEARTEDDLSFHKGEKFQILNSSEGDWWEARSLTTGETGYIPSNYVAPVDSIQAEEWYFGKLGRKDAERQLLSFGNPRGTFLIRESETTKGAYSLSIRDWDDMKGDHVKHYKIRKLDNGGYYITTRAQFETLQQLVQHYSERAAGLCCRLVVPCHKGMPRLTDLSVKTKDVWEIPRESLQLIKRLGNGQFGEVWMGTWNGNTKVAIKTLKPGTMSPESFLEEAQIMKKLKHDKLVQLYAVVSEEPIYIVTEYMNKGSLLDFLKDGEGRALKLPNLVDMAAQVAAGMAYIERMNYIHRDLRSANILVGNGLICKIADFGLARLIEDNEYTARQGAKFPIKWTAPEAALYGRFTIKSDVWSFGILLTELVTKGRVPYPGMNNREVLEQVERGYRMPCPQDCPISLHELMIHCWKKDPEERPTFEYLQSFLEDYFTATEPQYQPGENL

SH2 binding enrichment (SHP2-C SH2) | SH2 binding enrichment (Grb2 SH2) | SH2 binding enrichment (c-Src SH2) | Sequence | phosphorylation enrichment (Hck) | phosphorylation enrichment (MERTK) | phosphorylation enrichment (FGFR3) | phosphorylation enrichment (Fes) | phosphorylation enrichment (Fer (mouse)) | phosphorylation enrichment (FGFR1) | phosphorylation enrichment (c-Abl (mouse)) | phosphorylation enrichment (AncSZ) | phosphorylation enrichment (c-Src) | phosphorylation enrichment (EPHB2) | phosphorylation enrichment (Jak2) | phosphorylation enrichment (EPHB1) | phosphorylation enrichment (Fyn)
0.654 | 0.851 | 0.599 | KPIETYFSKNY [PLP1_Y50_L46P] | 0.45 | 0.466 | 0.597 | 0.603 | 0.4 | 0.466 | 0.473 | 0.595 | 0.452 | 0.408 | 0.534 | 0.392 | 0.448
1.19 | 1.07 | 0.972 | KPRKLYTIKKP [BRD2_Y715_P714L] | 0.452 | 0.408 | 0.427 | 0.496 | 0.413 | 0.328 | 0.456 | 0.608 | 0.442 | 0.444 | 0.532 | 0.374 | 0.375
1.73 | 1.85 | 1.9 | KPRKPYTIKKP [BRD2_Y715] | 0.924 | 0.644 | 2.2 | 1.94 | 1.19 | 0.864 | 1.98 | 1.28 | 0.75 | 0.765 | 2.95 | 1.03 | 0.608
0.609 | 0.765 | 0.466 | KQNSLYSFSDH [CCDC82_Y331] | 3.25 | 9.08 | 0.536 | 0.907 | 3.95 | 0.489 | 0.691 | 1 | 3.97 | 0.651 | 0.853 | 0.853 | 5.24
1.5 | 1.64 | 1.24 | KRGASYILKLA [SERPINB1_Y84] | 0.414 | 0.421 | 0.76 | 1.06 | 0.415 | 0.509 | 0.802 | 0.96 | 0.421 | 0.477 | 0.952 | 0.37 | 0.408
1.68 | 1.83 | 1.84 | KRLYAYKMLMA [TMC2_Y209_Q205R] | 0.436 | 0.348 | 0.568 | 0.869 | 0.42 | 0.453 | 0.684 | 0.731 | 0.399 | 0.493 | 0.675 | 0.492 | 0.327
0.703 | 1.06 | 0.535 | KRTFEYEAEKN [DENND2B_Y396_D399E] | 0.463 | 0.505 | 0.527 | 0.769 | 0.436 | 0.511 | 0.675 | 0.771 | 0.518 | 0.431 | 0.798 | 0.43 | 0.501
0.776 | 0.956 | 0.956 | KSELAYEIFDK [MYOM2_Y1024] | 0.951 | 4.45 | 0.782 | 1.21 | 1 | 0.65 | 0.915 | 2 | 4.27 | 0.603 | 1.24 | 0.596 | 1.94
